Laboratory results published in paper PMC3490468.
Several values for one entry are separate records, joined by “and”; a condition that tells them apart may be missing. Equal values may be shown once.

Experiments:
[1] = target: truncated portal protein cn3 (E25-Q456) of bacteriophage CNPH82 (bacteriophage CNPH82); assay: self-rotation function of X-ray diffraction data; crystal in space group C222(1), data to 4.2 A; MOLREP, resolution range 5-10 A, integration radius 87 A; structure not solved
[2] = target: truncated portal protein cn3 (E25-Q456) of bacteriophage CNPH82 (bacteriophage CNPH82); assay: SEC-MALS; 60 ul of 0.5 mg/ml cn3 on a BioSep SEC-s3000 column; 20 mM Tris pH 7.5, 500 mM NaCl, 10 mM MgCl2; size of the oligomer in solution

Substance: truncated portal protein cn3 (E25-Q456) of bacteriophage CNPH82 (domain or fragment)
- stoichiometry N (subunits per oligomer) [1]: 13
- stoichiometry N (subunits per oligomer) [2]: 12.9 and 13
